Experimental data from US6858210B1, “Therapeutic and diagnostic domain 1 β2GPI polypeptides and methods of using same” (La Jolla Pharmaceutical Co., priority 1998, dated 2005).
Read-outs that look alike come from different tables or passages of the source.

What was measured:
[1] = target: affinity purified β2GPI-dependent antiphospholipid antibody from patient 6509; assay: comp. inhibition ELISA
[2] = target: affinity purified β2GPI-dependent antiphospholipid antibody from patient 6652; assay: comp. inhibition ELISA
[3] = target: affinity purified β2GPI-dependent antiphospholipid antibody preparation 6641 (from patient 6641); assay: comp. inhibition ELISA
[4] = target: affinity purified β2GPI-dependent antiphospholipid antibody from patient 6644; assay: comp. inhibition ELISA
[5] = target: β2GPI-dependent antiphospholipid antibody from patient 7015; assay: comp. inhibition ELISA
[6] = target: affinity purified β2GPI-dependent antiphospholipid antibody from patient 7101; assay: comp. inhibition ELISA
[7] = target: β2GPI-dependent antiphospholipid antibody from patient 6626; assay: comp. inhibition ELISA
[8] = target: affinity purified β2GPI-dependent antiphospholipid antibody from patient 7008; assay: comp. inhibition ELISA
[9] = target: affinity purified β2GPI-dependent antiphospholipid antibody from patient 6632; assay: comp. inhibition ELISA
[10] = target: β2GPI-dependent antiphospholipid antibody from patient 6701; assay: comp. inhibition ELISA
[11] = target: affinity purified β2GPI-dependent antiphospholipid antibody from patient 7104; assay: comp. inhibition ELISA
[12] = target: β2GPI-dependent antiphospholipid antibody from patient 6501; assay: comp. inhibition ELISA
[13] = target: affinity purified β2GPI-dependent antiphospholipid antibody from patient 6203; assay: comp. inhibition ELISA
[14] = tested on: antiphospholipid antibody in plasma from patient 6501; assay: Competitive antibody binding ELISA with patient plasma on β2GPI coated plates; set-up: species or system human; conditions: plasma patient 6501, 1:200
Protocol: Nunc Maxisorp microplates (Nalge Nunc International, Denmark) were coated with 100 μL/well of β2GPI at 2.5 μg/mL in PBS, incubated for 2 hours at room temperature, and blocked for 2 hours at room temperature with 250 μl/well of 2% nonfat milk with […] (Sigma Chemical Co.). […] After incubation for one hour at room temperature the plates were washed 5× with TBS. To each well was added 100 μL of alkaline phosphatase-conjugated anti-human IgG, gamma chain specific (Zymed) diluted 1:1000 in 2% nonfat milk with 0.4% Tween-80. After one hour at room temperature the plates were washed 5× with TBS. To each well was added 100 μl PPMP chromogenic substrate solution for color development at room temperature. Optical absorbance per well was determined at A550nm in a commercial microplate reader (Bio-Tek Instruments EL3 11).

[15] = target: affinity purified β2-GPI domain 1 specific antibodies from patients 6701 and 6626; assay: Surface plasmon resonance Kd determination on immobilized antibodies; assay type: binding, human; conditions: read-out: Apparent equilibrium dissociation constant
Protocol: Reagents. CM5 chips, NHS and EDC and HBS-EP buffer were from BIAcore. Human pooled normal IgG (Zymed) was immobilized in a separate flow cell on the chip and used as a negative control. Affinity purified 2-GPI domain 1 specific antibodies from 2 patients (6701 and 6626) were immobilized in separate flow cells.
Surface Plasmon Resonance. All experiments were done on a BIAcore™ 2000 instrument at 25° C. with a flow rate of 10 μL/minute. Chip equilibration and binding studies were performed with degassed HBS-EP buffer, which consists of 0.01 M HEPES pH 7.4, 0.15 M NaCl, 3 mM EDTA and 0.005% (v/v) surfactant β20. […]
Titrations. […] Since the approach to binding equilibrium was incomplete during the measurement period, the equilibrium binding value (Req) was determined by fitting the association curves to the following equation using the manufacturer software (BiaEvaluation version 2.2, Uppsala, Sweden)): Rt=Req(1−e^−ks(t−t0))+R0 where Rt is the measured BIAcore response at time t, Req is the equilibrium plateau response, t is time, t0 is initial time, ks is an apparent association constant (ks=kaC+kdis where ka is the association constant, C is the analyte concentration and kdis is the dissociation constant), and R0 is a response offset, (Marquart-Levenberg algorithm). […]

[16] = tested on: affinity purified β2GPI-dependent antiphospholipid antibody; assay: Cardiolipin based ELISA, recombinant β2GPI proteins bound to cardiolipin coated wells; assay type: binding, human; conditions: cardiolipin coated plates
Protocol: Microtiter plates (Immulon 1 #3350 from Dynex Technologies) were coated with 30 μl of a 50 μg/ml solution of cardiolipin in ethanol, dried overnight at 4° C., washed three times with PBS, pH 7.2, and blocked for one hour at room temperature with 75 μl of 5% (wt/v) fish gelatin, (Hipure Liquid Gelatin, Norland Products Inc. 695 Joyce Kilmer Ave., New Brunswick N.J., USA). The plates were washed three times with PBS, charged with 50 μl of full length recombinant β2GPI at 10 μg/ml in 5% fish gelatin and incubated at 37° C. for one hour. […] The optical density, at 550 nm, was determined by reading the plates in a microplate autoreader (Bio-Teck Instruments, model EL311).
Seven different recombinant β2GPI mutant proteins were examined to determine if they could support the direct binding of affinity purified β2GPI-dependent antiphospholipid antibody preparations in the presence of anionic phospholipid. All seven recombinant mutant β2GPI were assayed with rabbit anti-β2GPI and with an affinity purified β2GPI-dependent antiphospholipid antibody preparation. Each mutant recombinant β2GPI protein was tested, in a dose dependent fashion and GST-6his was included as a negative control. The recombinant mutant β2GPI proteins were bound to microtiter plates that had previously been coated with cardiolipin. […]

B1: recombinant β2GPI domain 5 with GlyHis6 (----5) (protein)
chain: GRASCKLPVKKATVVYQGERVKIQEKFKNGMLHGDKVSFFCKNKEKKCSYTEDAQCIDGTIEVPKCFKEHSSLAFWKTDASDVKPCGHHHHHH
5%: Max inhibition [6] | Max inhibition [13]
10%: Max inhibition [1] | Max inhibition [3] | Max inhibition [4] | Max inhibition [5] | Max inhibition [7] | Max inhibition [9] | Max inhibition [10] | Max inhibition [12]
0%: Max inhibition [11]
15%: Max inhibition [2]
> 47 µM: IC50 [1] | IC50 [2] | IC50 [3] | IC50 [4] | IC50 [5] | IC50 [6] | IC50 [7] | IC50 [8] | IC50 [9] | IC50 [10] | IC50 [11] | IC50 [12] | IC50 [13]
20%: Max inhibition [8]

B2: 1----: recombinant β2GPI protein with domain 1 only (SEQ ID NO:4 region), His6 tail (protein)
chain: GRTCPKPDDLPFSTVVPLKTFYEPGEEITYSCKPGYVSRGGMRKFICPLTGLWPINTLKCTPRVGHHHHHH
Competitive binding is also exhibited: competition for antiphospholipid antibody binding to β2GPI [14]
0.417 ± 0.036 µM: Kd ([15]; immobilized antibody from patient 6701)
0.333 ± 0.018 µM: Kd ([15]; immobilized antibody from patient 6626)

B3: 12345: recombinant full length human β2GPI (domains 1-5) with C-terminal GlyHis6, baculovirus expressed (protein)
chain: GRTCPKPDDLPFSTVVPLKTFYEPGEEITYSCKPGYVSRGGMRKFICPLTGLWPINTLKCTPRVCPFAGILENGAVRYTTFEYPNTISFSCNTGFYLNGADSAKCTEEGKWSPELPVCAPIICPPPSIPTFATLRVYKPSAGNNSLYRDTAVFECLPQHAMFGNDTITCTTHGNWTKLPECREVKCPFPSRPDNGFVNYPAKPTLYYKDKATFGCHDGYSLDGPEEIECTKLGNWSAMPSCKASCKLPVKKATVVYQGERVKIQEKFKNGMLHGDKVSFFCKNKEKKCSYTEDAQCIDGTIEVPKCFKEHSSLAFWKTDASDVKPCGHHHHHH
readily detected: direct binding of patient antibody [16]
